1 molecule from PMC4191604 (Journal of Medicinal Chemistry, 2014) can be followed below.

Common to all, as to experiment: SPR
On the technique in general: In SPR one partner is held on a chip, and binding of the other changes the refractive index at the surface.

The target of assay [1] is T1, GBP1 GTPase (human GBP1, recombinant wild type) (human, UniProt P32455 1-592).
T1 sequence (looked up): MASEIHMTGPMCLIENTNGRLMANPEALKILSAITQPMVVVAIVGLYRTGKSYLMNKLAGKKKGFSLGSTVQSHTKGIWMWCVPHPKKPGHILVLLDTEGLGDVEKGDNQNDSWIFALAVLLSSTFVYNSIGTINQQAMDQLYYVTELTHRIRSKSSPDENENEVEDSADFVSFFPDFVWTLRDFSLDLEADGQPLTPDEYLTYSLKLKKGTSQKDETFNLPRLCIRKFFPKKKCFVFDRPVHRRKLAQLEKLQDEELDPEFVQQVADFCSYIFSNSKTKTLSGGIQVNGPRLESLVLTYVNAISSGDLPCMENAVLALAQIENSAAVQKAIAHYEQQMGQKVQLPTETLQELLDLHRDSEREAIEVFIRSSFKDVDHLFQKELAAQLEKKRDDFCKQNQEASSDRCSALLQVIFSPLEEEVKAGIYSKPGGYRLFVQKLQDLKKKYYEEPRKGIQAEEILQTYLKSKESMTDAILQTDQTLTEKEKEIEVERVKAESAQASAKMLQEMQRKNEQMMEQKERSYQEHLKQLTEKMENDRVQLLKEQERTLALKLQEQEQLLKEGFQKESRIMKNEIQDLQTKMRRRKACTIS

Assay [2] concerns the target T2, GBP1 mutant Q72A (human, UniProt P32455 1-592, Q72A).
T2 sequence (looked up): T1 sequence (looked up) with Q72A

Assay [3] has as its target T3, GBP1 mutant R227A/K228A (human, UniProt P32455 1-592, R227A | K228A).
T3 sequence (looked up): T1 sequence (looked up) with R227A, K228A

The target in assay [4] is T4, GBP1 mutant D184A (human, UniProt P32455 1-592, D184A).
T4 sequence (looked up): T1 sequence (looked up) with D184A

Numbering of substitutions follows the chain as printed.

B1: PIM1 (recombinant) (enzyme)
chain: not shown
As to B1, the Kd stood at 67 ± 20 nM in assay [1], 62 ± 2 nM in assay [2], 137 ± 14 nM in assay [3] and 80 ± 5 nM in assay [4].

A word on the Kd: it is a measure of binding affinity in units of concentration.
